# Source: PMC4275180
# What was measured:
# Stat1 [1] = biological target: Stat1 (UniProt P42224); experiment: GST pull-down after in vitro kinase reaction; conditions: reference: His-KDM3A(1-394) not phosphorylated by MSK1; sites S264
# Stat1 [2] = biological target: Stat1 (UniProt P42224); experiment: FLAG co-IP, western blot; conditions: reference: wild type FLAG-KDM3A; sites S264
Substance,binding against the reference (Stat1 [1]),binding against the reference (Stat1 [2])
KDM3A 1-394 (from UniProt Q9Y4C1) His-KDM3A(1-394) phosphorylated by recombinant MSK1,gained,
KDM3A (from UniProt Q9Y4C1) S264A,,lost
